Source: publication doi:10.1101/2020.10.21.349050
Numbering of substitutions follows the chain as printed. Like-named read-outs stand apart in the source and are kept apart here.

B1: E-For RNA (ssRNA)
RNA: ACAAGUGAUAAGAGUAGGUGU
B2: D-For RNA (ssRNA)
RNA: UGGAUUAAGGAGAAGCGGUA
B3: D-For RNA-DNA hybrid (DNA:RNA)
RNA: UGGAUUAAGGAGAAGCGGUA
DNA: TACCGCTTCTCCTTAATCCA
B4: D-Rev RNA (ssRNA)
RNA: UACCGCUUCUCCUUAAUCCA

What was measured:
Assay in all cases: EMSA
[1] = molecular target: T1, GST-Swi6 (Schizosaccharomyces pombe, UniProt P40381 1-328)
T1 sequence: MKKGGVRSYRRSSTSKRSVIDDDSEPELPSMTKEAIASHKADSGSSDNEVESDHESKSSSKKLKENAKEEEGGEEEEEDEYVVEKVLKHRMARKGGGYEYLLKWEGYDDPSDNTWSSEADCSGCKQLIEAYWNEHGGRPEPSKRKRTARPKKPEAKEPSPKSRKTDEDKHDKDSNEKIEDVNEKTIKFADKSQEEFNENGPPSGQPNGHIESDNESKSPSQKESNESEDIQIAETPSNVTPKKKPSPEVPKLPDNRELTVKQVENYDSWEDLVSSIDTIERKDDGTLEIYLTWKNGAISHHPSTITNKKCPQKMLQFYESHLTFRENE

[2] = molecular target: T1, GST-Swi6; remark: listed apart in the source
[3] = molecular target: T1, GST-Swi6; remark: listed apart in the source
[4] = molecular target: T2, GST-Swi6 3K->3A (Schizosaccharomyces pombe, UniProt P40381 1-328, K242A;K243A;K244A)
T2 sequence: T1 sequence with K242A, K243A, K244A

[5] = molecular target: T1, GST-Swi6; remark: listed apart in the source
[6] = molecular target: T1, GST-Swi6; remark: listed apart in the source

| Binder | Kd [2] [nM] | Kd [3] [nM] | also measured |
| --- | --- | --- | --- |
| B1 | – | – | Kd [1]: 2150 ± 100 nM |
| B2 | 1790 | 2450 | – |
| B3 | 730 | 80 | binding result [4]: no binding; Kd [5]: 90 nM |
| B4 | – | – | binding result [6]: no binding |
